B1: Med23 (other, mouse (murine ES cells), UniProt Q80YQ2 1-1367, looked up)
chain: METQLQSIFEEVVKTEIIEEAFPGMFMDTPEDEKTKLISCLAAFRQFWSGLSQESHEQCVQWIVKFIHGQHSPKRISFLYDCLAMAVETGLLPPRMVCESLINSDSLEWERTQLWALTFKLVRKIIGGVDYKGVRDLLKAILEKILTIPNTVSSAVVQQLLAAREVIAYILERNACLLPAYFAVTEIRKLYPEGKLPHWLLGNLVSDFVDTFRPTARINSICGRCSLLPVVNNSGAICNSWKLDPATLRFPLKGLLPYDKDLFEPQTALLRYVLEQPYSRDMVCNMLGLNKQHKQRCPVLEDQLVDLVVYAMERSETEEKFDDGGTSQLLWQHLSSQLIFFVLFQFASFPHMVLSLHQKLAGRGLIKGRDHLMWVLLQFISGSIQKNALADFLPVMKLFDLLYPEKECIPVPDINKPQSTHAFAMTCIWIHLNRKAQNGDSTLQIPIPHSLKLHHEFLQQSLRNKSLQMNDYKIALLCNAYSTNSECFTLPMGALVETIYGNGIMRVPLPGTSCLASASVTPLPMNLLDSLTVHAKMSLIHSIATRVIKLAHTKSSVALAPALVETYSRLLVYMEIESLGIKGFISQLLPTVFKSHAWGILHTLLEMFSHRMHHIQPHYRVQLLSHLHTLAAVAQTNQNQLHLCVESTALRLITALGSSEVQPQFTRFLNDPKTVLSAESEELNRALILTLARATHVTDFFTGSDSIQGTWCKDILQTIMNFTPHNWASHTLSCFPAPLQAFFKQNNVPQESRFNLKKNVEEEYRKWKSMTDENEIITQFSVQGFPPLFLCLLWKMLLETDHISQIGYKVLERIGARALVAHVRTFADFLVYEFSTSAGGQQLNKCIEILNDMVWKYNIVTLDRLILCLAMRSHEGNEAQVCYFIIQLLLLKPNDFRNRVSDFVKENSPEHWLQSDWHTKHMSYHKKYPEKLYFEGLAEQVDPPVPIQSPYLPIYFGNVCLRFLPVFDIVIHRFLELLPVSKSLETLLDHLGGLYKFHDRPVTYLYNTLHYYEMCLRNRDHLKRKLVHAIIGSLKDNRPQGWCLSDTYLKHAMNAREDNPWVPEDSYYCKLIGRLVDTMAGKSPGPFPNCDWRFNEFPNPAAHALHVTCVELMALAVPGKDVGNALLNVVLKSQPLVPRENITAWMNAIGLIITALPEPYWIVLHDRIVNVISSSSLTSETEWVGYPFRLFDFTACHQSYSEMSCSYTLALAHAVWHHSSIGQLSLIPKFLTEALLPVVKTEFQLLYVYHLVGPFLQRFQQERTRCMIEIGVAFYDMLLNVDQCSTHLNYMDPICDFLYHMKYMFTGDSVKEQVEKIICNLKPALKLRLRFITHISKMEPAVPPQALNSGSPAPQSNQVPASLPVTQ
notes: Endogenous protein in crosslinked chromatin or nuclear extract of V6.5 murine ES cells; also called mediator subunit Med23

How the values were obtained:
Med12 = molecular target: T1, Med12 (mouse (murine ES cells), UniProt A2AGH6 1-2190); test: ChIP-western: IP of crosslinked, sheared murine ES cell chromatin with anti-Med12, western blot for Med23
T1 construct: Endogenous protein immunoprecipitated from crosslinked murine ES cell chromatin; also called mediator subunit Med12
Excerpt: (§1) FIG. 3 Mediator and cohesin interact. a, Mediator (Med23) is detected by western blot (WB) when crosslinked, sheared chromatin is subjected to immunoprecipitation with antibodies against mediator (Med1, Med12) or cohesin (Smc1a, Smc3). WCE, whole-cell extract. b, Cohesin (Smc1a, Smc3) and mediator (Med23) are detected by western blot after immunoprecipitation of uncrosslinked ES cell nuclear extracts (NE) with a Nipb1 antibody. c, Cohesin (Smc3) and Nipb1 co-purify with mediator. The input fractions and immunoprecipitated eluate (IP Eluate) were examined by western blot and silver staining. Molecular weight (MW) markers (kDa) are shown.
(§2) For ChIP-Western, same conditions as for ChIP-Seq were used. For co-immunoprecipitation, murine ES cells were harvested in cold PBS and extracted for 30 min at 4° C. in TNEN250 (50 mM Tris pH 7.5, 5 mM EDTA, 250 mM NaCl, 0.1% NP-40) with protease inhibitors. After centrifugation, supernatant was mixed to 2 volumes of TNENG (50 mM Tris pH 7.5, 5 mM EDTA, 100 mM NaCl, 0.1% NP-40, 10% glycerol).

Med1 = molecular target: T2, Med1 (mouse (murine ES cells), UniProt Q925J9 1-1575); test: ChIP-western: IP of crosslinked, sheared murine ES cell chromatin with anti-Med1, western blot for Med23
T2 construct: Endogenous protein immunoprecipitated from crosslinked murine ES cell chromatin; also called CRSP1/TRAP220; mediator subunit Med1
Excerpt: as §1, §2

Med23 [1] = molecular target: B1; test: ChIP-western: IP of crosslinked, sheared murine ES cell chromatin with anti-Smc3, western blot for Med23
Excerpt: as §1, §2

Med23 [2] = molecular target: B1; test: ChIP-western: IP of crosslinked, sheared murine ES cell chromatin with anti-Smc1a, western blot for Med23
Excerpt: as §1, §2

T1 sequence (A2AGH6 whole entry): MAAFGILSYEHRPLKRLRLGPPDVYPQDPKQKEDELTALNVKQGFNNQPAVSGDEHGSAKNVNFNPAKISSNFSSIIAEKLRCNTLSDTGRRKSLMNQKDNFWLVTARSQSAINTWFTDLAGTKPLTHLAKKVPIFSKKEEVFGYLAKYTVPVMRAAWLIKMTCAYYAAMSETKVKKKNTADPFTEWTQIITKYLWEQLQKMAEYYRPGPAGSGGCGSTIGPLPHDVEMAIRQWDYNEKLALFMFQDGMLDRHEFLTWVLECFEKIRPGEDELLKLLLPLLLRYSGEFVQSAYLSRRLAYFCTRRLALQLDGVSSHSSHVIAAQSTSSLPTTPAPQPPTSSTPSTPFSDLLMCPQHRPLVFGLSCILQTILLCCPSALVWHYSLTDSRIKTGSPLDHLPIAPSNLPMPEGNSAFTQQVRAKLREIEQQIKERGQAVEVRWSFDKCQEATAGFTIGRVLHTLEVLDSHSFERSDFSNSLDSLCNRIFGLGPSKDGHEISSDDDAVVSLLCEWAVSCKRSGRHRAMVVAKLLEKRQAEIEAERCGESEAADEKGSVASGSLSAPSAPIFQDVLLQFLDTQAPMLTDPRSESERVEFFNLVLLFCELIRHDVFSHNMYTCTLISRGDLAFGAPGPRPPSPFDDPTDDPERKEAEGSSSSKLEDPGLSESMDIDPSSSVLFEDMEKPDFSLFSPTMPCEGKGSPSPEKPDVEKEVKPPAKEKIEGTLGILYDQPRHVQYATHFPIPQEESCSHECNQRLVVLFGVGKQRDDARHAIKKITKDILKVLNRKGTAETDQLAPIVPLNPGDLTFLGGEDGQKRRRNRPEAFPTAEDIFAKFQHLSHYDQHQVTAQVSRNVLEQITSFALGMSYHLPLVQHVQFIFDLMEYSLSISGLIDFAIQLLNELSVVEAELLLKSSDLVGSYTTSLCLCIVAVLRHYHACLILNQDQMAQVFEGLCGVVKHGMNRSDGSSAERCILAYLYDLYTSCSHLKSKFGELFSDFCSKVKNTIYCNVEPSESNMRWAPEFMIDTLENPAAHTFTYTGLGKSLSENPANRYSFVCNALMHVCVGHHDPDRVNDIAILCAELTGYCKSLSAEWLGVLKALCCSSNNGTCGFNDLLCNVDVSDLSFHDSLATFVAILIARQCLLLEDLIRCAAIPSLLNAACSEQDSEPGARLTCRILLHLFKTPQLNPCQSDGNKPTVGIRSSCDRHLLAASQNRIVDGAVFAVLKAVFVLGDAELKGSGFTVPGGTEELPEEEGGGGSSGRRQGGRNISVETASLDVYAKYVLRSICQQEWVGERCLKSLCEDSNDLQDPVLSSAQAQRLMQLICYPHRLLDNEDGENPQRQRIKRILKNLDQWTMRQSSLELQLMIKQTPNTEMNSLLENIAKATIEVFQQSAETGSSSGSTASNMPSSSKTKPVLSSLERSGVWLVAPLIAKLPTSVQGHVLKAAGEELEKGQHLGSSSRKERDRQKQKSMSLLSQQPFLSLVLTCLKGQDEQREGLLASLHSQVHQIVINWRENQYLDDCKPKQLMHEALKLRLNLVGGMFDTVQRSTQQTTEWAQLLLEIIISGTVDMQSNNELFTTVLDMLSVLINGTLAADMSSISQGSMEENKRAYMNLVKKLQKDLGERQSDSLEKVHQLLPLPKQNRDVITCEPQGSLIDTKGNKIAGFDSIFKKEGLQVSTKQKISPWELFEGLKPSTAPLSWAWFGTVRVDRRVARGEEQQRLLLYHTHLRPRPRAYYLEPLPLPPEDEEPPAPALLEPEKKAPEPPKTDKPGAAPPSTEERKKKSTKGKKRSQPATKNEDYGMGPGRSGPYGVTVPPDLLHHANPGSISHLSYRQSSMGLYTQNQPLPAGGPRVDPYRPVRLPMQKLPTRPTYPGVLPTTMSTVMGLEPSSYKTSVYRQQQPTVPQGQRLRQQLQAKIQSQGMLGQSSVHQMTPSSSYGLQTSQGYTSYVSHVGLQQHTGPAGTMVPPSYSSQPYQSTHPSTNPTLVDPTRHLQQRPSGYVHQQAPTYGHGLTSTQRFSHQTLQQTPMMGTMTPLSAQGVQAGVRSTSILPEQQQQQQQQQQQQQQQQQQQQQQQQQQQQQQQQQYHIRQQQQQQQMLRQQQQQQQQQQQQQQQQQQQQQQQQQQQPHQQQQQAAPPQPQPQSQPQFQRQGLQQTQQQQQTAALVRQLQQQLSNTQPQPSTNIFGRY
T2 sequence (Q925J9 whole entry): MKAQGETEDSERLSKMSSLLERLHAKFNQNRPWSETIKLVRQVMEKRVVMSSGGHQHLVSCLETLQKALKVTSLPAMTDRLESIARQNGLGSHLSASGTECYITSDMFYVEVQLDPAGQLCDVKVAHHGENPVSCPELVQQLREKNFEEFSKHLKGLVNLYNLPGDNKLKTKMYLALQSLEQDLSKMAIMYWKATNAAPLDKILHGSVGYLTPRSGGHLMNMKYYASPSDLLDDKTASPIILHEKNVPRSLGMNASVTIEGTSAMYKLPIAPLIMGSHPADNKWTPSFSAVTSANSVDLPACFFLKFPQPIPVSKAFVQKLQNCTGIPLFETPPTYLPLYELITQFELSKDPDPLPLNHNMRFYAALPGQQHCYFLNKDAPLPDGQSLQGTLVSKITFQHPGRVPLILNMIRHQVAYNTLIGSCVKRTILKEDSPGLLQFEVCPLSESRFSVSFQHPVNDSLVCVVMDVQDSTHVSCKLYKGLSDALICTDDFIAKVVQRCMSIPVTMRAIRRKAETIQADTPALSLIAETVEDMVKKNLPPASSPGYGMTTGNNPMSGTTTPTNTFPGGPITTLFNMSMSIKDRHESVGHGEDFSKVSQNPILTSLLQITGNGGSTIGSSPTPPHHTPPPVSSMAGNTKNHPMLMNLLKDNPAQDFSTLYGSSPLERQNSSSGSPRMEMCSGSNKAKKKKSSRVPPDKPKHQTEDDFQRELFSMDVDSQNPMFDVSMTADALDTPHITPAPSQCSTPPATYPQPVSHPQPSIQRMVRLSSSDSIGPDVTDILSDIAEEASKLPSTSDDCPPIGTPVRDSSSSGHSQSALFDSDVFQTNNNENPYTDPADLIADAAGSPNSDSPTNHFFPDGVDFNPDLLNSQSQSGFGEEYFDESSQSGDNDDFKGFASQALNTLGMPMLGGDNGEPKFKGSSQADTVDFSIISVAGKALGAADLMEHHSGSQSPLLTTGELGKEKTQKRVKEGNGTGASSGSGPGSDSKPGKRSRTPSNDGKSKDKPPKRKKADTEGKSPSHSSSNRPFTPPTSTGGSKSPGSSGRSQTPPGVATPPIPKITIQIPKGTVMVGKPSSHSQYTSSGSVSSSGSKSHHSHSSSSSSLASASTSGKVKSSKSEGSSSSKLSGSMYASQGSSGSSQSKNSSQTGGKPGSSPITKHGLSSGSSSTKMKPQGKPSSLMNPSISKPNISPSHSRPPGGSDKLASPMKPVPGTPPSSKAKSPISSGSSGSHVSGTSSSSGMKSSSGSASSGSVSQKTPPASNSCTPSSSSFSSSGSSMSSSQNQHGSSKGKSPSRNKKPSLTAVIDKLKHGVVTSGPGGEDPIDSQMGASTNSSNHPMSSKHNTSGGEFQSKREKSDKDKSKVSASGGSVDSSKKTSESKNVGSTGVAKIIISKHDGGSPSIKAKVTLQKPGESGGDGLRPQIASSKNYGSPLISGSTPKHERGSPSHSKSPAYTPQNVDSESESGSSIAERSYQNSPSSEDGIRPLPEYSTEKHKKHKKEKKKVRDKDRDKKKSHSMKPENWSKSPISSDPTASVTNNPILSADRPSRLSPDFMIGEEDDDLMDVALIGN

Binder: B1
- binding result (Med12): binds
- binding result (Med1): binds

B2: Smc3 (other, mouse (murine ES cells), UniProt Q9CW03 1-1217, looked up)
chain: MYIKQVIIQGFRSYRDQTIVDPFSSKHNVIVGRNGSGKSNFFYAIQFVLSDEFSHLRPEQRLALLHEGTGPRVISAFVEIIFDNSDNRLPIDKEEVSLRRVIGAKKDQYFLDKKMVTKNDVMNLLESAGFSRSNPYYIVKQGKINQMATAPDSQRLKLLREVAGTRVYDERKEESISLMKETEGKREKINELLKYIEERLHTLEEEKEELAQYQKWDKMRRALEYTIYNQELNETRAKLDELSAKRETSGEKSRQLRDAQQDARDKMEDIERQVRELKTKISAMKEEKEQLSAERQEQIKQRTKLELKAKDLQDELAGNSEQRKRLLKERQKLLEKIEEKQKELAETEPKFNSVKEKEERGIARLAQATQERTDLYAKQGRGSQFTSKEERDKWIKKELKSLDQAINDKKRQIAAIHKDLEDTEANKEKNLEQYNKLDQDLNEVKARVEELDRKYYEVKNKKDELQSERNYLWREENAEQQALAAKREDLEKKQQLLRAATGKAILNGIDSINKVLEHFRRKGINQHVQNGYHGIVMNNFECEPAFYTCVEVTAGNRLFYHIVDSDEVSTKILMEFNKMNLPGEVTFLPLNKLDVRDTAYPETNDAIPMISKLRYNPRFDKAFKHVFGKTLICRSMEVSTQLARAFTMDCITLEGDQVSHRGALTGGYYDTRKSRLELQKDVRKAEEELGELEAKLNENLRRNIERINNEIDQLMNQMQQIETQQRKFKASRDSILSEMKMLKEKRQQSEKTFMPKQRSLQSLEASLHAMESTRESLKAELGTDLLSQLSLEDQKRVDALNDEIRQLQQENRQLLNERIKLEGIITRVETYLNENLRKRLDQVEQELNELRETEGGTVLTATTSELEAINKRVKDTMARSEDLDNSIDKTEAGIKELQKSMERWKNMEKEHMDAINHDTKELEKMTNRQGMLLKKKEECMKKIRELGSLPQEAFEKYQTLSLKQLFRKLEQCNTELKKYSHVNKKALDQFVNFSEQKEKLIKRQEELDRGYKSIMELMNVLELRKYEAIQLTFKQVSKNFSEVFQKLVPGGKATLVMKKGDVEGSQSQDEGEGSGESERGSGSQSSVPSVDQFTGVGIRVSFTGKQGEMREMQQLSGGQKSLVALALIFAIQKCDPAPFYLFDEIDQALDAQHRKAVSDMIMELAVHAQFITTTFRPELLESADKFYGVKFRNKVSHIDVITAEMAKDFVEDDTTHG
notes: Endogenous protein of murine ES cells; also called cohesin core complex protein Smc3
- binding result (Med23 [1]): binds

B3: Smc1a (other, mouse (murine ES cells), UniProt Q9CU62 1-1233, looked up)
chain: MGFLKLIEIENFKSYKGRQIIGPFQRFTAIIGPNGSGKSNLMDAISFVLGEKTSNLRVKTLRDLIHGAPVGKPAANRAFVSMVYSEEGAEDRTFARVIVGGSSEYKINNKVVQLHEYSEELEKLGILIKARNFLVFQGAVESIAMKNPKERTALFEEISRSGELAQEYDKRKKEMVKAEEDTQFNYHRKKNIAAERKEAKQEKEEADRYQRLKDEVVRAQVQLQLFKLYHNEVEIEKLNKELASKNKEIEKDKKRMDKVEDELKEKKKELGKMMREQQQIEKEIKEKDSELNQKRPQYIKAKENTSHKIKKLEAAKKSLQNAQKHYKKRKGDMDELEKEMLSVEKARQEFEERMEEESQSQGRDLTLEENQVKKYHRLKEEASKRAATLAQELEKFNRDQKADQDRLDLEERKKVETEAKIKQKLREIEENQKRIEKLEEYITTSKQSLEEQKKLEGELTEEVEMAKRRIDEINKELNQVMEQLGDARIDRQESSRQQRKAEIMESIKRLYPGSVYGRLIDLCQPTQKKYQIAVTKVLGKNMDAIIVDSEKTGRDCIQYIKEQRGEPETFLPLDYLEVKPTDEKLRELKGAKLVIDVIRYEPPHIKKALQYACGNALVCDNVEDARRIAFGGHQRHKTVALDGTLFQKSGVISGGASDLKAKARRWDEKAVDKLKEKKERLTEELKEQMKAKRKEAELRQVQSQAHGLQMRLKYSQSDLEQTKTRHLALNLQEKSKLESELANFGPRINDIKRIIQSREREMKDLKEKMNQVEDEVFEEFCREIGVRNIREFEEEKVKRQNEIAKKRLEFENQKTRLGIQLDFEKNQLKEDQDKVHMWEQTVKKDENEIEKLKKEEQRHMKIIDETMAQLQDLKNQHLAKKSEVNDKNHEMEEIRKKLGGANKEMTHLQKEVTAIETKLEQKRSDRHNLLQACKMQDIKLPLSKGTMDDISQEEGSSQGEESVSGSQRTSSIYAREALIEIDYGDLCEDLKDAQAEEEIKQEMNTLQQKLNEQQSVLQRIAAPNMKAMEKLESVRDKFQETSDEFEAARKRAKKAKQAFEQIKKERFDRFNACFESVATNIDEIYKALSRNSSAQAFLGPENPEEPYLDGINYNCVAPGKRFRPMDNLSGGEKTVAALALLFAIHSYKPAPFFVLDEIDAALDNTNIGKVANYIKEQSTCNFQAIVISLKEEFYTKAESLIGVYPEQGDCVISKVLTFDLTKYPDANPNPNEQ
notes: Endogenous protein of murine ES cells; also called cohesin core complex protein Smc1a
- binding result (Med23 [2]): binds

— patent publication US20130109737A1 (published 2013)
